Data taken from US20220251151A1.

Tests used:
Assay in all cases: cell-based or functional assay
[1] = biological target: T1, human Kv1.1 potassium channel (α-subunit) (human), Q09470
T1 chain: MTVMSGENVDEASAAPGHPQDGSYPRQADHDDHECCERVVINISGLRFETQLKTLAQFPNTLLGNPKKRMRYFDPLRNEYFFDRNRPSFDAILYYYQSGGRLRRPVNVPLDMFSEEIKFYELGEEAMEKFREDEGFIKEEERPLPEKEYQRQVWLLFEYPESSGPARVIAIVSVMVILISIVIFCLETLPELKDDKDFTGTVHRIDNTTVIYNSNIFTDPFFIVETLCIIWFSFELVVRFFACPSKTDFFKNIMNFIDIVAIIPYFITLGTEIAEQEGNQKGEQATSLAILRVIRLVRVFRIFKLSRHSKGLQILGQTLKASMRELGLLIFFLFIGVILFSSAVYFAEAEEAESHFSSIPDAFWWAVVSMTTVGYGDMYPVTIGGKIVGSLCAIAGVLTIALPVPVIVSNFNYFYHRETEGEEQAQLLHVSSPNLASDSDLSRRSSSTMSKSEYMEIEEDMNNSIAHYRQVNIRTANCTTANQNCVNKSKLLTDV

[2] = biological target: human Kv1.2 potassium channel (α-subunit) (human), P16389
[3] = biological target: human Kv1.3 potassium channel (potassium voltage-gated channel subfamily A member 3, α-subunit) (human), P22001
[4] = biological target: T2, human Kv1.6 potassium channel (α-subunit) (human), P17658
T2 chain: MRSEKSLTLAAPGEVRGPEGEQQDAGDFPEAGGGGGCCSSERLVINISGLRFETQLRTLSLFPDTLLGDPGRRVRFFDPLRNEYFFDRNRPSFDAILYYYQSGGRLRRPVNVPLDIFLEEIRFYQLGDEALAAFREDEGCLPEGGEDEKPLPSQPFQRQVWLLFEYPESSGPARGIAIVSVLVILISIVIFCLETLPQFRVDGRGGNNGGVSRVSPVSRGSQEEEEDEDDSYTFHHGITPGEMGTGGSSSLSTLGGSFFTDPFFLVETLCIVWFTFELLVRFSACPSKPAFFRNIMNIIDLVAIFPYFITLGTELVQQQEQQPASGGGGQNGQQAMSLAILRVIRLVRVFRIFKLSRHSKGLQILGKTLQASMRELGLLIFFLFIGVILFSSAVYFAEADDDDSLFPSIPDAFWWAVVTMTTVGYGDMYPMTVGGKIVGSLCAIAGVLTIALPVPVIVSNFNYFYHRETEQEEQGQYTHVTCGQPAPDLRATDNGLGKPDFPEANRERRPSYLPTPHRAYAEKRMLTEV

Chain of human Kv1.3 potassium channel (potassium voltage-gated channel subfamily A member 3, α-subunit) (human), P22001 (P22001 whole entry): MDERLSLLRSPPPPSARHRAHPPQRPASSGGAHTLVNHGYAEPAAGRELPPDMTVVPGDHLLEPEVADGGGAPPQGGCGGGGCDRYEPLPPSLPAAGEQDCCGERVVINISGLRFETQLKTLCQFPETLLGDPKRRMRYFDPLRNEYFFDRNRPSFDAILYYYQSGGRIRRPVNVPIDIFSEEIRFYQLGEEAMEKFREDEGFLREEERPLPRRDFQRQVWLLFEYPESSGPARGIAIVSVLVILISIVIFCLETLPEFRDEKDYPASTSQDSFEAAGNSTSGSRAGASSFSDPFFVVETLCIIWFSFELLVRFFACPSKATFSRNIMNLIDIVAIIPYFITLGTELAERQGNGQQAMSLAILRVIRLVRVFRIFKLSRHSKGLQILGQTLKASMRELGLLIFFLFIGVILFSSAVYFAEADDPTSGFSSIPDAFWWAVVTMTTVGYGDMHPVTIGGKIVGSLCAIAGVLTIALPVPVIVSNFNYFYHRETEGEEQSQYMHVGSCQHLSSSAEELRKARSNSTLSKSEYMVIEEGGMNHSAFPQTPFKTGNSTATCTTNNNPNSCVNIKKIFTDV
Chain of human Kv1.2 potassium channel (α-subunit) (human), P16389 (P16389 whole entry): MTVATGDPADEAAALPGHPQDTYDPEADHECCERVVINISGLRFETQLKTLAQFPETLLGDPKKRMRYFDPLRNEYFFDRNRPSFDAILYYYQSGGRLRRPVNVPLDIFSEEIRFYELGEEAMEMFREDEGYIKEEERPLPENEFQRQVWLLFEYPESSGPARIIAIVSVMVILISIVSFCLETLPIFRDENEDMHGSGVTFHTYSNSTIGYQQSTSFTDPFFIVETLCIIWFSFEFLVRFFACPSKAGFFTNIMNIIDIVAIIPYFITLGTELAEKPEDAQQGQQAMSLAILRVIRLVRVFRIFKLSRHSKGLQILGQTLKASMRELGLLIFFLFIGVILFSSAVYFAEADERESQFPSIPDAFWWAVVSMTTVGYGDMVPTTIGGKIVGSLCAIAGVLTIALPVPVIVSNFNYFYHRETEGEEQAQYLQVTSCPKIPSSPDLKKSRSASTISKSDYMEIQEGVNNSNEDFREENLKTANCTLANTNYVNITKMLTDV

B1: Compound 1 (PaT1) (peptide)
peptide: QMDMRCSASVECKQKCLKAIGSIFGKCMNKKCKCYPR
modifications: not checked
With B1 the Potency IC50 (patch clamp) [1] was over 3000 nM, the Selectivity Kv1.1/Kv1.3 [1] was over 7900 and the Potency IC50 (patch clamp) [2] was 518 nM. The Selectivity Kv1.2/Kv1.3 [2] was 1360, the Potency IC50 (patch clamp) [3] was 0.38 nM and the anti-CD3 PBMC/IL-2 IC50 [3] was 0.09 nM. The Potency IC50 (patch clamp) [4] was over 3000 nM and the Selectivity Kv1.6/Kv1.3 [4] was over 7900.
